Experimental data from article PMC7994789, “Glycosyltransferase POMGNT1 deficiency strengthens N-cadherin-mediated cell–cell adhesion” (The Journal of Biological Chemistry, 2021).

B1: recombinant extracellular domain (EC) of N-cadherin (EC-N-Cdh) purified from ΔPOMGnT1 HEK293T cells (domain or fragment, mouse, UniProt P15116 160-724, looked up)
chain: DWVIPPINLPENSRGPFPQELVRIRSDRDKNLSLRYSVTGPGADQPPTGIFIINPISGQLSVTKPLDRELIARFHLRAHAVDINGNQVENPIDIVINVIDMNDNRPEFLHQVWNGSVPEGSKPGTYVMTVTAIDADDPNALNGMLRYRILSQAPSTPSPNMFTINNETGDIITVAAGLDREKVQQYTLIIQATDMEGNPTYGLSNTATAVITVTDVNDNPPEFTAMTFYGEVPENRVDVIVANLTVTDKDQPHTPAWNAAYRISGGDPTGRFAILTDPNSNDGLVTVVKPIDFETNRMFVLTVAAENQVPLAKGIQHPPQSTATVSVTVIDVNENPYFAPNPKIIRQEEGLHAGTMLTTLTAQDPDRYMQQNIRYTKLSDPANWLKIDPVNGQITTIAVLDRESPNVKNNIYNATFLASDNGIPPMSGTGTLQIYLLDINDNAPQVLPQEAETCETPEPNSINITALDYDIDPNAGPFAFDLPLSPVTIKRNWTINRLNGDFAQLNLKIKFLEAGIYEVPIIITDSGNPPKSNISILRVKVCQCDSNGDCTDVDRIVGAGLGTGA
modifications: N-glycans at Asn273, 325, 402, 572, 622, 651, 692: nongalactosylated complex-type N-glycans with a bisecting GlcNAc dominate at all sites except Asn651 and Asn692; galactosylation (-27% on average) and sialylation (-16% on average) decreased against the WT-derived protein; O-mannosylation as in the WT-derived protein
notes: N-cadherin (neural cadherin), mouse, extracellular domain (EC1-EC5) amplified from mouse cDNA; same construct as m1, other host cells; Same polypeptide as m1; It differs only in the N-glycans, because it was made in POMGNT1 knockout cells; See the note of m1 for the limits read from the primers; also called ΔPOMGnT1-derived N-Cdh; N-Cdh from ΔPOMGnT1 cells; source: ΔPOMGnT1 (POMGNT1 knockout) …
B2: recombinant extracellular domain (EC) of N-cadherin (EC-N-Cdh) purified from WT HEK293T cells (domain or fragment, mouse, UniProt P15116 160-724, looked up)
chain: B1 chain
modifications: N-glycans at Asn190 (scarcely), 273, 325, 402, 572, 622, 651, 692 (complex-type, Asn651 high-mannose-type); nonelongated O-linked mannose at 15 sites (Table S6)
notes: N-cadherin (neural cadherin), mouse, extracellular domain (EC1-EC5) amplified from mouse cDNA; Cloned AscI/XhoI into pSecTag2 (Invitrogen); also called WT-derived N-Cdh; N-Cdh extracellular domain; source: HEK293T (WT), stably transfected with pMLHD7, secreted into serum-free medium, purified (HisTrap); not shown: His8, C-terminal, kept

Target: the molecule itself
Test: bead aggregation assay; EC-N-Cdh coated on Dynabeads (40 μg protein per 40 μl beads, o/n 4 °C); binding buffer 50 mM Tris-HCl pH 7.2, 100 mM NaCl, 10 mM KCl, 0.2% BSA; 2 mM CaCl2 (2 mM EDTA as control); room temperature; aggregate size imaged over 1 h

| Protein | binding result |
| --- | --- |
| B1 | binds |
| B2 | binds |
